Results reported in US7063843 (OKLAHOMA MEDICAL RESEARCH FOUNDATION, dated 2006).

Columns and labels:
[1] = biological target: T1, 125I-labeled activated protein C (human, UniProt P04070 43-197; P04070 212-461, radioiodinated with Na[125I] by Iodogen; positions not stated); test: 125I-APC binding to HUVEC monolayers at 4 C, Scatchard analysis
T1 construct: Specific activity 1x10^4 cpm/ng
Experimental: At the indicated times, cells were washed and bound radioactivity was measured. […] After washing, bound radioactivity was measured. […] Specific binding was determined as described below.
Monolayers of HUVEC in 24-well microplates (Costar) (1×10⁵ cells per well) were washed twice with EDTA/PBS and once with ice-cold HBSS. […] After washing three times with ice-cold HBSS, cells were released with the EDTA buffer, and the bound radioactivity was measured in a gamma counter (Isodata 500). To determine non-specific, calcium-independent adsorption of radioactivity, the cells were washed with EDTA/PBS and residual radioactivity in the cell pellet was measured. Non-specific binding of radioactivity was consistently less than 5% of the specific binding. The data was analyzed using the Enzfitter program (Elsevier Biosoft, Cambridge, U.K.).

human protein C = biological target: T2, human protein C (human, UniProt P04070 43-461); test: summary statement; the direct measurement was 125I-APC on HUVEC, and protein C displaced F1-APC equivalently to APC
T2 construct: also called PC
T2 sequence (P04070 43-461): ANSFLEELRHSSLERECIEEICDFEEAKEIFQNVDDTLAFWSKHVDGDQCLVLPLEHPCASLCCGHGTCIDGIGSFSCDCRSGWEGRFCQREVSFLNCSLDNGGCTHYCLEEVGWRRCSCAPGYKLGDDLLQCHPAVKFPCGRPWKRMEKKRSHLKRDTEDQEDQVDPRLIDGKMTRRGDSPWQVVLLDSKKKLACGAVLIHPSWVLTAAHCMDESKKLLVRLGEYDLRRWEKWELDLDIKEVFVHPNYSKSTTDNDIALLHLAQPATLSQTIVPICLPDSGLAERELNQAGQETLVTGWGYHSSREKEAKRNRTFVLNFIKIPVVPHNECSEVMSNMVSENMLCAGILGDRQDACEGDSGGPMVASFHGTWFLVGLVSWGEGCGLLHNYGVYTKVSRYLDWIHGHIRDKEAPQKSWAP

T1 sequence (P04070 43-197, chain 1 of 2): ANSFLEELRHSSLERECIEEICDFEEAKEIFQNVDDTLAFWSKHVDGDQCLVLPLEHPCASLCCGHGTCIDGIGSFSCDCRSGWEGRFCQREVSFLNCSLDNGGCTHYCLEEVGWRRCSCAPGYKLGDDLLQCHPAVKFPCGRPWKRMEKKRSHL
T1 sequence (P04070 212-461, chain 2 of 2): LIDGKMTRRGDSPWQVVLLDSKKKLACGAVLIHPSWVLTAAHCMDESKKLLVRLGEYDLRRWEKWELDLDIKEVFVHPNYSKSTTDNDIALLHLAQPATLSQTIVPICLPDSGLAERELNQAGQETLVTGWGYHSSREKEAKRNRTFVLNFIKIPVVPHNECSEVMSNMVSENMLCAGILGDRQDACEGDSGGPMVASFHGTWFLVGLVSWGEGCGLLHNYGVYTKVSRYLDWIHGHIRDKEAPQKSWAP

B1: endothelial cell protein C/activated protein C receptor (EPCR), human (receptor)
chain: FCSQDASDGLQRLHMLQISYFRDPYHVWYQGNASLGGHLTHVLEGPDTNTTIIQLQPLQEPESWARTQSGLQSYLLQFHGLVRLVHQERTLAFPLTIRCFLGCELPPEGSRAHVFFEVAVNGSSFVSFRPERALWQADTQVTSGVVTFTLQQLNAYNRTRYELREFLEDTCVQYVQKHISAENTKGSQTSRSYTSLVLGVLVGGFIIAGVAVGIFLCTGGRRC
notes: also called EPCR-1 (clone)
B1 gave a Kd [1] of 30 nM and a Kd (human protein C) of 30 nM.
